T1: Rhesus-ICAM1 (rhesus, UniProt Q5NKV6 28-480, limits assumed)
T1 sequence (looked up): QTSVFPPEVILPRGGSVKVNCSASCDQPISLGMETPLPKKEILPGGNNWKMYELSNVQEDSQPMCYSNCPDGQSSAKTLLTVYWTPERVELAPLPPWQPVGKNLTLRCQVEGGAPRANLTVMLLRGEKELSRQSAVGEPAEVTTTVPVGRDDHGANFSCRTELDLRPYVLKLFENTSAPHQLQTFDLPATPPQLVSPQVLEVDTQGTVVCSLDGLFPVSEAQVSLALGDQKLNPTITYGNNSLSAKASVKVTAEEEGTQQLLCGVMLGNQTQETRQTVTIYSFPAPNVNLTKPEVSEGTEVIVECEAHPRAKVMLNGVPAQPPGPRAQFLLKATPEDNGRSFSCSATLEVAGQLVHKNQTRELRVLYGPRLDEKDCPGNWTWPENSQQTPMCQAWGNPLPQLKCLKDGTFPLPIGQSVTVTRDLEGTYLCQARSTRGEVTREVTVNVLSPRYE


Legend:
[1] = target: T2, CD38 on the surface of Daudi cells (human, UniProt P28907 1-300); test: flow cytometry, Daudi cells;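 note: purified antibodies incubated with Daudi cells for 1 h at 4 °C, bound antibody detected by fluorescent secondary antibody and read by flow cytometry as MFI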
T2 construct: whole, on cells
Protocol: (§1) Harvested cells were centrifuged at 2000 rpm for 5 min and resuspended with 10-15 ml ice-cold culture medium. Cells were counted and then 3×10⁶ cells were resuspended per mL of blocking buffer (PBS plus 2% FBS). 100 μl of the cell suspension was dispensed into each well of a 96-well plate and incubated at room temperature for 10-20 min. […] While incubating, purified antibodies were diluted to the desired dilution with blocking buffer. After a 10-20 minutes incubation, cells were centrifuged for 5 min at 2000 rmp in a refrigerated centrifuge. Blocking buffer was aspirated, and cells were resuspended in 100 μl/well diluted antibodies and incubated for 1 hour at 4° C. The cells were then washed 3 times with PBS plus 2% FBS. After the final wash, the cells were resuspended in 100 μl 1:500 diluted secondary antibody (Invitrogen, Cat #: A10631) and incubated for 1 hour at 4° C. in the dark. The cells were then washed 3 times with 200 μl PBS by centrifuging at 2000 rpm for 5 min. After the last wash, the cells were resuspended in 300 μl cold PBS and analyzed on a FACSVerse™ (BD Biosciences) flow cytometer.

recombinant human CD38 [2] = target: T3, recombinant human CD38 (human, UniProt P28907 43-300, limits assumed); test: SPR (Biacore 8K), antibody captured, antigen injected;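 note: antibodies held on a CM5 chip through anti-human IgG Fc, antigen in 3-fold serial dilutions, 1 min association then 10 min dissociation at 25 °C, 1:1 Langmuir global fit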
Protocol: (§2) The binding kinetics of the anti-CD38 and anti-ICAM1 antibodies were evaluated on a Biacore 8K instrument (GE Healthcare). Biacore Series S CM5 sensor chips were immobilized with monoclonal mouse anti-human IgG (Fc) antibody (human antibody capture kit from GE Healthcare). Antibodies were captured on each flow cell. Serial 3-fold dilutions of each antigen were injected at a flow rate of 30 μl/min. Each sample was analyzed with 1 min association and 10 min dissociation at room temperature (25° C.). After each injection, the chip was regenerated using 3M MgCl₂. A 1:1 Langmuir model of simultaneous fitting of kₒₙ and koff was used for kinetics analysis.

cynomolgus CD38 ECD [3] = target: T4, cynomolgus CD38 ECD (cynomolgus, UniProt Q5VAN0 44-301, biotinylated on the AviTag during preparation); test: as above
T4 construct: also called Cyno-CD38; Avi-Cyno CD38 ECD
Protocol: as §2

cynomolgus CD38 ECD [4] = target: T4, cynomolgus CD38 ECD; test: ELISA: plate coated with 1 ug/ml recombinant cynomolgus CD38 ECD, serially diluted antibody, OD450
Protocol: (§3) The plate was coated overnight at 4° C. with 1 μg/ml recombinant CD38 or ICAM1. After washing 3 times, the plate was blocked with 300 μl 1% BSA in PBST at 37° C. for 1 hour. Serially diluted antibodies were added and incubated at 37° C. for 1 hour. The plate was then washed 4 times with PBST and incubated with 1:5000 diluted 2nd antibody (Sigma, Cat #A0293) at 37° C. for 1 hour.

recombinant human CD38 [5] = target: T3, recombinant human CD38; test: ELISA: plate coated with 1 ug/ml recombinant human CD38 ECD, serially diluted antibody, OD450
Protocol: as §3

[6] = target: T5, ICAM1 on the surface of DU145 cells (human, UniProt P05362 28-532); test: flow cytometry, DU145 cells;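 note: purified antibodies in dilution series bound to cells for 1 h at 4 °C, detected with a fluorescent secondary antibody (1 h, 4 °C, dark), read by flow cytometry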
T5 construct: whole, on cells
Protocol: as §1

recombinant human ICAM1 [7] = target: T6, recombinant human ICAM1 (human, UniProt P05362 28-480, limits assumed); test: SPR (Biacore 8K), antibody captured, antigen injected
Protocol: as §2

Rhesus-ICAM1 [8] = target: T1, Rhesus-ICAM1; test: as above
Protocol: as §2

recombinant human ICAM1 [9] = target: T6, recombinant human ICAM1; test: ELISA: plate coated with 1 ug/ml recombinant human ICAM1 ECD, serially diluted antibody, OD450
Protocol: as §3

Rhesus-ICAM1 [10] = target: T1, Rhesus-ICAM1; test: ELISA: plate coated with 1 ug/ml recombinant rhesus ICAM1 ECD, serially diluted antibody, OD450
Protocol: as §3

T6 sequence (P05362 28-480 limits assumed): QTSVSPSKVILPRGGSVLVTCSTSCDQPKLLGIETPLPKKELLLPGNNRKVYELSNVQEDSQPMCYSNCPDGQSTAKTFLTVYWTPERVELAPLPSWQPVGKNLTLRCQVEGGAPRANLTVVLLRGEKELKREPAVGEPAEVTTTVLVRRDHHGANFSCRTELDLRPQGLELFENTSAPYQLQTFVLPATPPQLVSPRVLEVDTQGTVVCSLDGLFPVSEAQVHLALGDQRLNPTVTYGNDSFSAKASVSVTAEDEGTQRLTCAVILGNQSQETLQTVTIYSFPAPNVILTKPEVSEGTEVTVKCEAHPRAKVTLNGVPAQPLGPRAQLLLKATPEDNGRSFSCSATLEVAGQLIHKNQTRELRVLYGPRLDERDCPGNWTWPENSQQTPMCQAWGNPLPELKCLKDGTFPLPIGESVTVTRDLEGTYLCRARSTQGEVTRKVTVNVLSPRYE
T5 sequence (P05362 28-532): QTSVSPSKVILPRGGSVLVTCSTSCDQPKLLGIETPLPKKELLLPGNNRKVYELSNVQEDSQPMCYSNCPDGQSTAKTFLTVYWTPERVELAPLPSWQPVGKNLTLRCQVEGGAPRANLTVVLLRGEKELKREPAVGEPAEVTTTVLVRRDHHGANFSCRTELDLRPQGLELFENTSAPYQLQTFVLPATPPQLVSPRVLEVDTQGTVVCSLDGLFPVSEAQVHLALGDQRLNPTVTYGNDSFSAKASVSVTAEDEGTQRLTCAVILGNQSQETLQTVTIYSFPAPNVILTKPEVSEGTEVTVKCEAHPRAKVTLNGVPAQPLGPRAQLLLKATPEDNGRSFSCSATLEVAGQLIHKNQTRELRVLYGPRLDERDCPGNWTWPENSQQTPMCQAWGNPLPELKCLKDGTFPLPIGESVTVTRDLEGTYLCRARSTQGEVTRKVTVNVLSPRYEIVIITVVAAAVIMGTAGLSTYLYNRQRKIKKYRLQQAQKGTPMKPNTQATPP

| Binder | EC50 [1] | Max Binding MFI [1] | Kd (recombinant human CD38 [2]) | koff (recombinant human CD38 [2]) | kon (recombinant human CD38 [2]) | Kd (cynomolgus CD38 ECD [3]) | koff (cynomolgus CD38 ECD [3]) | kon (cynomolgus CD38 ECD [3]) | EC50 (read off the curve) (cynomolgus CD38 ECD [4]) | EC50 (read off the curve) (recombinant human CD38 [5]) | EC50 [6] | Max Binding MFI [6] | Kd (recombinant human ICAM1 [7]) | koff (recombinant human ICAM1 [7]) | kon (recombinant human ICAM1 [7]) | Kd (Rhesus-ICAM1 [8]) | koff (Rhesus-ICAM1 [8]) | kon (Rhesus-ICAM1 [8]) | EC50 (read off the curve) (recombinant human ICAM1 [9]) | EC50 (read off the curve) (Rhesus-ICAM1 [10]) |
| --- | --- | --- | --- | --- | --- | --- | --- | --- | --- | --- | --- | --- | --- | --- | --- | --- | --- | --- | --- | --- |
| 22H6 (antibody, human IgG1, kappa, V domains shown, Rabbit-human chimeric anti-CD38: rabbit VH and VL on human IgG1 and kappa constant regions) VH: QSVEESGGRLVTPGTPLTLTCTVSGFSLSNNAISWVRQAPGKGLQWIGSIYGSGNTYYATWAKGRFTVSKTSTTVDLKINSPTTEDTATYFCAREGAGSSWGFNLWGPGTLVTVSS VL: AQVLTQTASSVSAAVGGTVTISCQSSESVYKNNYLSWYQQKPGQPLKCLIYSASTLASGVPSRFKGSGSGTQFTLTISDLESDDAATYYCAGGYSGNINGFGGGTEVVVKR | 1.32 nM | 782 MFI | 65.4 nM | 0.021 s⁻¹ | 321000 M⁻¹ s⁻¹ | 62.4 nM | 0.0352 s⁻¹ | 564000 M⁻¹ s⁻¹ | ~0.06 nM | – | – | – | – | – | – | – | – | – | – | – |
| 21H9 (antibody, human IgG1, kappa, V domains shown, Rabbit-human chimeric anti-CD38: rabbit VH and VL on human IgG1 and kappa constant regions) VH: QSLEESGGDLVKPGASLTLTCTASGFSATTYYYYMCWVRQAPGKGLEWIACTYTGDGATYYATWAKGRFTISKTSSTTVTLQMTSLTAADTATYFCARSADNSIYYGYFNLWGPGTLVTVSS VL: AFELTQTPFSVSEPVGGTVTINCQASENIYSSLAWYQQKPGQPPKLLIYRASTLASGVPSRFSGSGSGTEFTLTISGVQSDDAATYYCQTYYGSTSTGFTFGGGTEVVVKR | 1.2 nM | 1930 MFI | 0.004 nM | 5.99e-07 s⁻¹ | 166000 M⁻¹ s⁻¹ | 0.76 nM | 0.00014 s⁻¹ | 184000 M⁻¹ s⁻¹ | ~0.06 nM | ~0.06 nM | – | – | – | – | – | – | – | – | – | – |
| 1E2 (antibody, human IgG1, kappa, V domains shown, Rabbit-human chimeric anti-CD38: rabbit VH and VL on human IgG1 and kappa constant regions) VH: QSVEESGGRLVTPGTPLTLTCTVSGIDLNSYAMGWVRQAPGKGLKYIGIMTSGGNIYYANWAKGRFTISKTSTTVDLRITSPTTEDTATYFCAREREFYGGGTSGSRLDLWGQGTLVTVSS VL: AYDMTQTPASVEAAVGGTVTIKCQASQSIYNFLNWYQQKPGQPPKLLIYYASTLAFGVPSRFKGSGSGTEYTLTISGVESADAATYYCQQGWNSGILDNSFGGGTEVVVKR | 0.497 nM | 2130 MFI | 1.62 nM | 0.000388 s⁻¹ | 240000 M⁻¹ s⁻¹ | 68.1 nM | 0.0124 s⁻¹ | 182000 M⁻¹ s⁻¹ | ~0.06 nM | ~0.06 nM | – | – | – | – | – | – | – | – | – | – |
| 6G8 (antibody, human IgG1, kappa, V domains shown, Rabbit-human chimeric anti-ICAM1: rabbit VH and VL on human IgG1 and kappa constant regions) VH: QSVEESGGGLVKPGGTLTLTCTVSGFSLSSYAMGWVRQAPGKGLEYIGIIGSSGSTYYATWAKGRFTISKTSTTVDLKITSPTTEDTATYFCVRDPYDSYDAAYRLWGPGTLVTVSS VL: AYDMSQTPASVEVAVGGTVTIKCQASQSIYSYLSWYQQKPGQRPKLLIYDASKLASGVPSRFTGSGSGTEFTLTISGVQSDDAATYYCQQAYSSSNVDNVFGGGTEVVVKR | – | – | – | – | – | – | – | – | – | – | 2.23 nM | 4190 MFI | 1.7 nM | 0.000533 s⁻¹ | 314000 M⁻¹ s⁻¹ | 0.85 nM | 0.00126 s⁻¹ | 1.47e+06 M⁻¹ s⁻¹ | ~0.04 nM | ~0.04 nM |
| 2E3 (antibody, human IgG1, kappa, V domains shown, Rabbit-human chimeric anti-ICAM1: rabbit VH and VL on human IgG1 and kappa constant regions) VH: QSVEESGGGLVKPGGTLTLTCTVSGFSLSSYAMGWVRQAPGKGLEYIGIIGSSGSTYYASWAKGRFTISKTSTTVDLKITSPTTEDTATYFCVRDPYDSFGDGYRLWGPGTLVTVSS VL: AYDMTQTPASVEVAVGGTVTIKCQASENIYRYLLWYQQKLGQRPSLLIYDASKLASGVPSRFKGSGSGTEFTLTISGVQSDDAATYYCQQAYSSSNVDNAFGGGTEVVVKR | – | – | – | – | – | – | – | – | – | – | 1.59 nM | 3980 MFI | 0.65 nM | 0.000149 s⁻¹ | 227000 M⁻¹ s⁻¹ | 1.17 nM | 0.000387 s⁻¹ | 330000 M⁻¹ s⁻¹ | ~0.04 nM | ~0.04 nM |

From patent US20220002432A1 (VIRTUOSO BINCO, published 2022)
